Columns and labels:
[1] = target: T1, recombinant AIM-A1 protein (human VWF residues 1238-1493) (human, multiple O-linked sialylated core 1 glycans (produced from transfected HEK293F cells)); experiment: apparent affinity, method not named; glycosylated AIM-A1 from HEK293F cells; glycosylated AIM-A1 from HEK293F cells; apparent affinity
T1 construct: Any tags are as in that entry; also called glycosylated AIM-A1; human VWF AIM-A1 protein

[2] = target: T2, Plasma-derived VWF (pdVWF, Alphanate) (human, UniProt P04275 764-2813); experiment: ELISA, plate coated with 100 nM nanobody, pdVWF titrated; apparent affinity, hyperbolic fit; apparent Kd of direct binding to pdVWF
T2 construct: Commercial multimeric VWF concentrate; also called plasma-purified VWF; full-length VWF

[3] = target: T2, Plasma-derived VWF (pdVWF, Alphanate); experiment: ELISA: binding of pdVWF (0.1 µg/ml) to immobilised LBD-WT induced by a titration of the nanobody; EC50 of nanobody-induced binding of pdVWF to immobilized LBD
[4] = target: plasma VWF (normal pooled human plasma) (human, UniProt P04275 764-2813); experiment: cell-based or functional assay
[5] = target: T1, recombinant AIM-A1 protein (human VWF …); experiment: method not given; nanobody from E. coli on AIM-A1
[6] = target: T1, recombinant AIM-A1 protein (human VWF …); experiment: biolayer interferometry
[7] = target: T2, Plasma-derived VWF (pdVWF, Alphanate); experiment: method not stated; monomeric recombinant VHH81; plasma-derived VWF
[8] = target: T3, purified VWF (UniProt P04275 764-2813, limits assumed); experiment: method not stated; monomeric recombinant VHH81; purified VWF
T3 construct: It may be a recombinant fragment

Kd [1] [nM]	Kd [2] [nM]	EC50 [3] [nM]	EC50 of extent of platelet aggregation as a function of nanobody concentration [4] [nM]	EC50 of platelet aggregation in stirred human platelet rich plasma [4] [nM]	Kd [5] [nM]	Kd [6] [nM]	Kd [7] [nM]	Kd [8] [nM]	Binder
~10	1.12	42	~100	~57	31	76			Cd1D12 (VHH, Llama nanobody produced in E. coli with a C-terminal His tag; also called 6D12) VHH: QVQLVESGGGLVQPGGSLRLSCAASGFTLDDYAIGWFRQVPGKERTFVGAINWSGTKAYYAGSVKGRSTVRRDNAKNTVYLQMNSLKPEDTAVYYCATHRGLHYGGINYSQKDEYDYWGQGTQVTVSS
							~20	~20	VHH81 (VHH, Monomeric recombinant VHH81 produced in bacteria; The tags are not included here; also called PMP12A2h1; mono ISVD of caplacizumab) VHH: EVQLVESGGGLVQPGGSLRLSCAASGRITSYNPMGWFRQAPGKGRELVAAISRTGGSTYYPDSVEGRFTISRDNAKRMVYLQMNSLRAEDTAVYYCAAAGVRAEDGRVRTLPSEYTFWGQGTQVTVSS
	5.4	163		~167	120				Cd1C4 (VHH, Llama nanobody produced in E. coli with a C-terminal His tag; also called 6C4) VHH: QVQLVESGGGLVQTGGSLTLSCAASGRAFSQYSVGWFRQAPGKERTFVAAINWSGTKAYYAGSVKGRSTISRDRAKTTVFLQMNSLKPEDTAVYYCATHRGLYYEGTNYSQKDEYDYWGQGTQVTVSS
	3.68	215	~100	~100	13.5	29			Cd1C11 (VHH, Llama nanobody produced in E. coli with a C-terminal His tag; also called 6C11) VHH: QVQLVESGGGLVQTGGSLRLSCAASGRTVSHYSVGWFRQAPGKERVFVGAINWSGDKAYYVGSVKGRSTIRRDNAKNTVYLQMNSLKPEDTAVYYCATRRGLYYEGTDYSRKDEYDYWGQGTQVTVSS
